Test results reported in US7166427.

Molecular target: T1, PepTag peptide C1
T1 chain: PLSRTLSVAAK

B1: recombinant DESC1 polypeptide expressed as a fusion protein with an amino-terminal His tag (pcDNA4/HisMax) (protein)
chain: MYRPDVVRARKRVCWEPWVIGLVIFISLIVLAVCIGLTVHYVRYNQKKTYNYYSTLSFTTDKLYAEFGREASNNFTEMSQRLESMVKNAFYKSPLREEFVKSQVIKFSQQKHGVLAHMLLICRFHSTEDPETVDKIVQLVLHEKLQDAVGPPKVDPHSVKIKKINKTETDSYLNHCCGTRRSKTLGQSLRIVGGTEVEEGEWPWQASLQWDGSHRCGATLINATWLVSAAHCFTTYKNPARWTASFGVTIKPSKMKRGLRRIIVHEKYKHPSHDYDISLAELSSPVPYTNAVHRVCLPDASYEFQPGDVMFVTGFGALKNDGYSQNHLRQAQVTLIDATTCNEPQAYNDAITPRMLCAGSLEGKTDACQGDSGGPLVSSDARDIWYLAGIVSWGDECAKPNKPGVYTRVTALRDWITSKTGI
PepTag Protease Assay: proteolysis of dye-linked peptide, agarose gel electrophoresis: demonstrate proteolytic cleavage of C1 peptide by fractions containing DESC1 polypeptide eluted from the ProBond resin
